Laboratory results as given in publication PMC6010203.

Target: DS_ConC_SOSIP trimer (ConC_SOSIP with the disulfide 201C-433C) (HIV-1 (clade C consensus))
Test: negative-stain electron microscopy

Substance “DS_ConC_SOSIP trimer (ConC_SOSIP with the disulfide 201C-433C) (complex)” has a stoichiometry N of 3.
